Reference: patent publication US20040204561A1 (published 2004)
Ends that are not written are not given here. bbDTPA = DTPA chelating ligand bonded through a carbon of its ethylene backbone

Columns and labels:
[1] = molecular target: the molecule itself; test: self-association, observation of solutions
From the text: First, solutions of EP 1272L (FW=2,243 Da) were concentrated and purified by centrifugation in a filter device with a nominal molecular weight limit of 300,000 Da. The formation of high molecular weight aggregates allowed EP1272L to be retained by the filter device. […] Third, SEC-LS column retention and light scattering measurements of EP1272L were consistent with a large species having a mass distribution of 4×10⁶ to 13×10⁶ Da, and a hydrodynamic radius in the range of 155 nm to 210 nm.

[2] = molecular target: T1, streptavidin (on magnetic beads) (UniProt P22629 37-163, limits assumed); test: capture on streptavidin magnetic beads, gadolinium ICP
T1 construct: also called streptavidin beads; streptavidin-coated beads
T1 sequence (P22629 37-163 limits assumed): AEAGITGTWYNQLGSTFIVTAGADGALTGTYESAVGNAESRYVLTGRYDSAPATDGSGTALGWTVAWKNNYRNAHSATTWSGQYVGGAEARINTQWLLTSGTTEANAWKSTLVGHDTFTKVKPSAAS
Procedure: The three EP1595/EP1272 formulations, one EP1596/EP1272 formulation, and an EP1272 formulation were assayed for affinity to streptavidin magnetic beads. Each sample was diluted so as to maintain a constant ratio of biotinylated peptide and streptavidin binding sites in the assay. Solutions without biotin were treated as though they contained 0.5% EP1595. After several rinses the magnetic beads were digested in acid. The extent of capture was quantified by gadolinium ICP.

B1: EP1272L (peptide)
peptide: bbDTPA-GAEAEAKAKAEAEAKAK
modifications: also: bbDTPA complexed to Gd(III)
notes: also called EP1272L aggregates alone; EP1272 formulation
binding result [1]: binds
binding result [2]: binds
